Molecular target: T1, His-H1.0 fusion protein (histone H1.0) (UniProt P07305 2-194)
T1 construct: histone H1.0; Used in the pull-down and as analyte in SPR; source: E. coli BL21, purified (Ni-NTA Sepharose)
Test: SPR; BIAcore T200; His-NS1 amine-coupled on a CM5 chip (600 RU); H1.0 at 0-500 nM in PBS flowed over, 30 uL/min, dissociation 360 s
Conditions: both partners purified

T1 sequence (P07305 2-194): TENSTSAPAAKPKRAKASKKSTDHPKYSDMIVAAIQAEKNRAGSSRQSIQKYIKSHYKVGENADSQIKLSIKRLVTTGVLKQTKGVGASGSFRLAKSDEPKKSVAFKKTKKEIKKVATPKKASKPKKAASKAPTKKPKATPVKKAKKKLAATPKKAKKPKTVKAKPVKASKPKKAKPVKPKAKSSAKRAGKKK

B1: His-NS1 fusion protein (respiratory syncytial virus nonstructural protein 1) (natural protein)
chain: MGSNSLSMIKVRLQNLFDNDEVALLKITCYTDKLIHLTNALAKAVIHTIKLNGIVFVHVITSSDICPNNNIVVKSNFTTMPVLQNGGYIWEMMELTHCSQPNGLLDDNCEIKFSKKLSDSTMTNYMNQLSELLGFDLNP
notes: nonstructural protein 1 (NS1) of respiratory syncytial virus; Immobilised by amine coupling on the CM5 chip; source: E. coli BL21, purified
In the case of B1, the Kd is reported as 31.2 nM and the kon is reported as 25400 M⁻¹ s⁻¹.

Source: paper PMC12596378, “Nonstructural Protein 1 Mediates HMGB1 Release by Targeting Histone H1.0 After Respiratory Syncytial Virus Infection In Vivo and In Vitro” (Inflammation, 2025)
